{"source": "paper PMC11677724", "about": "“Preclinical Study of a Dual-Target Molecular Probe Labeled with ^68Ga Targeting SSTR2 and FAP” (Pharmaceuticals, 2024)", "key": {"[1]": {"tested_on": "NCI-H727 tumor-bearing mice", "experiment": "Ex vivo biodistribution in NCI-H727 tumor-bearing mice", "conditions": "biodistribution in NCI-H727 tumor-bearing mice", "experimental": "Female BALB/c nude mice were obtained from Charles River Laboratories (Beijing, China). […] Approximately 5 × 10^6 cells were implanted into the right shoulder of each mouse to establish an NCI-H727 tumor model and Mc38 tumor model. Once the tumor volume reached 200–300 mm^3, the mice were used for imaging or biodistribution studies. All animal experiments were carried out in accordance with the National Institutes of Health Guidelines for the Care and Use of Laboratory Animals and were approved by the Animal Protection and Utilization Committee of the General Hospital of the PLA (Approval No.: S2023-209-1).\nThe NCI-H727 tumor-bearing mice were randomly assigned to four groups (with three mice in each group) and were injected with [^68Ga]Ga-TATE-46 (1.48 MBq, 100 µL). The mice were put to death at 0.5, 1, 2, and 4 h post-injection (p.i.). The tissues and organs of concern were gathered, weighed, and measured for radioactivity using a γ-counter. Additionally, [^68Ga]Ga-DOTA-TATE and [^68Ga]Ga-FAPI-46 were used as control groups in the biodistribution study of the NCI-H727 tumor model at 1 h p.i. After performing time decay correction, the radiotracer uptake in each tissue and organ was calculated as %ID/g."}, "[2]": {"experiment": "Partition coefficient (log P), n-octanol/PBS", "format": "physicochemical", "conditions": "shake-flask n-octanol/PBS (0.1 mol/L, pH 7.4), 14.8 MBq in 100 µL, vortexed 2 min at room temperature, centrifuged 3000 rpm 5 min, γ-counter CPM; mean ± SD, repeated three times; read-out: Log p", "experimental": "In a 15 mL centrifuge tube, 2.9 mL of PBS (0.1 mol/L, pH = 7.4) and 3 mL of n-octanol were added. [^68Ga]Ga-TATE-46, [^68Ga]Ga-DOTA-TATE, or [^68Ga]Ga-FAPI-46 (14.8 MBq, 100 µL) were added to each tube. The mixture was vortexed at room temperature for 2 min to ensure thorough blending, and then centrifuged at room temperature (effective centrifuge radius 12 cm, 3000 rpm) for 5 min. After allowing sufficient time for phase separation, three 500 µL samples were taken from each layer. The radioactivity of each sample was measured using a γ-counter (count per minute, CPM), and log p = log (n-octanol CPM/water CPM) was calculated. The experiment was repeated three times."}, "[3]": {"experiment": "Pharmacokinetics, blood time-activity curves, two-compartment model", "format": "in vivo, BALB/c mice", "conditions": "female healthy BALB/c mice, n = 3 per group, 0.37 MBq tail vein, blood 2-120 min, γ-counter, two-compartment model (WinNonlin)", "experimental": "Nine female healthy BALB/c mice were randomly divided into three groups (with three mice in each group) using a random number table. Each group was administered 100 µL of [^68Ga]Ga-TATE-46, [^68Ga]Ga-DOTA-TATE, or [^68Ga]Ga-FAPI-46 (0.37 MBq) via tail vein injection. Blood samples (5 µL × 3) were collected at 2, 5, 10, 15, 30, 60, 90, and 120 min post-injection via tail vein. The radioactivity in the blood was measured with a γ-counter and converted to blood radioactivity concentration (kBq/mL). The pharmacokinetic data (time–blood radioactivity concentration) were analyzed by using the two-compartment model in the pharmacokinetic software WinNonlin (Certara, Louis, MO, USA, 2018-06) to determine the distribution and clearance half-life parameters of the radiopharmaceuticals in the mice."}}}
{"smiles": "C[C@@H](O)[C@H](NC(=O)[C@@H]1CSSC[C@H](NC(=O)[C@@H](Cc2ccccc2)NC(=O)CCCCCNC(=O)CCCCCNC(=O)[C@H](Cc2ccccc2)NC(=O)C(CCC(=O)N[C@@H](Cc2ccccc2)C(=O)NCCCCCC(=O)NCCCCCC(=O)N2CCN(CCCN(C)c3ccc4nccc(C(=O)NCC(=O)N5CC(F)(F)C[C@H]5C#N)c4c3)CC2)NC(=O)CN2CCN(CC(=O)O)CCN(CC(=O)O)CCN(CC(=O)O)CC2)C(=O)N[C@@H](Cc2ccc(O)cc2)C(=O)N[C@H](Cc2c[nH]c3ccccc23)C(=O)N[C@@H](CCCCN)C(=O)N[C@@H]([C@@H](C)O)C(=O)N1)C(=O)O", "note": "(stereo partly shown) [[^68Ga]Ga-TATE-46, metal not drawn]", "values": [{"measurement": "tumor/muscle ratio", "setting": "[1]", "value": "3–4"}, {"measurement": "logD", "setting": "[2]", "value": "-0.2 ± 0.05"}, {"measurement": "distribution half-life", "setting": "[3]", "value": 1.79, "unit": "min"}, {"measurement": "elimination half-life", "setting": "[3]", "value": 37.75, "unit": "min"}]}
